Here are results for 3 molecules from patent US20090124537A1.

Assay [1] deals with BMP-7 receptor of ROS cell plasma membrane fraction (ROS cell type II BMP receptor) (rat). Put plainly: radioligand receptor assay, displacement of 125I-BMP-7 from ROS cell plasma membranes.
For assay [2] the target is unchanged. Put plainly: cell-based or functional assay.
For assay [3] the target is unchanged. Put plainly: radioligand receptor assay, 125I-BMP-7 on ROS cell plasma membranes.

Bridges are numbered along the chain shown (N, C = ends). Where no end group is shown, it is not given here.

As for CFRDLGWQDWIIAPC (disulfide 1-15 (inferred)) [F1-2], the concentration required to inhibit the binding of 125I-labeled BMP-7 in assay [1] stood at 179 µM. This molecule also gave a 50% inhibition of the cell responsive to BMP-7 (ROS cell alkaline phosphatase assay) in assay [2] of 10 µM.

A word on the IC50: it is the point on the concentration scale where inhibition reaches its midpoint. A low value points to inhibition by little substance. CYFDDSSNVIC (disulfide 1-11 (inferred)) [F2-2] gave an IC50 in assay [1] of 1000 nM. For the same molecule, in assay [2], the potentiation of BMP-7 induced cell responsiveness at 0.6-60 µM peptide (ROS cell alkaline phosphatase assay) is 20%.

Take CCFINPETVCC (cyclized (disulfide bond between cysteines)) [H-2C]: in assay [3], the peptide concentration that potentiated the binding of 125I-labeled BMP-7 was found to be 8 µM. In assay [2], the 50% inhibition of cellular responsiveness to BMP-7 (ROS cell alkaline phosphatase assay) came to 5 µM.
